This passage reports EC50 results from CN112741804A (SHANGHAI JUNSHI BIOSCIENCES CO LTD; JUNMENG BIOSCIENCES CO …, dated 2021).

The target of this experiment is T1, human PD-L1 (programmed death-ligand 1), soluble protein (human, UniProt Q9NZQ7 19-238, limits assumed).
T1 construct: also called 人PD-L1; CD274
Put plainly: ELISA, PD-L1 coated on plate, HRP anti-human IgG detection. For orientation: ELISA stands for enzyme-linked immunosorbent assay.

T1 sequence (Q9NZQ7 19-238 limits assumed): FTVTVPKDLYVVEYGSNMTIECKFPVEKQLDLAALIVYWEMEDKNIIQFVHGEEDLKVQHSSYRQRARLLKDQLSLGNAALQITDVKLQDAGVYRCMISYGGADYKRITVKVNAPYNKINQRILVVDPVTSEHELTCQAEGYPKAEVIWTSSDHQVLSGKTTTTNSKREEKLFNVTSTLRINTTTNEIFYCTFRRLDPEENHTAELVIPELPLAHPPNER

B1: JS003 (humanized anti-PD-L1 antibody, clone 30) (antibody, human IgG4 S228P, kappa, V domains shown)
VH: QGQLQESGPSLVKPSQTLSLTCTVSGDSITRGYWNWIRKHPGKGLEYIGYISYTGSTYSNLSLKSRVTISRDTSKNQYYLKLSSVTAADTAVYYCATSTGWLDPVDYWGQGTLVTVSS
VL: DIVMTQSPDSLAVSLGERATINCKASQNVDTSVAWFQQKPGQPPKALIYSASFRYSGVPDRFSGSGSGTDFTLTISSLQAEDVAVYFCQQYYGYPFTFGQGTKLEIKR
notes: Full humanized antibody; Tested from formulation no; 30; also called 人源化抗体30; 抗体30
Molecule B1 came in with an EC50 of 0.558 ng/mL.

B2: humanized anti-PD-L1 antibody 38 (clone 38) (antibody, V domains shown)
VH: QGQLQESGPSLVKPSQTLSLTCTVSGDSITRGYWNWIRKPPGKGLEYIGYISYTGSTYSNLSLKSRVTISRDTSKNQYYLKLSSVTAADTAVYYCATSTGWLDPVDYWGQGTLVTVSS
VL: DIQMTQSPSSLSASVGDRVTITCRASQNVDTSVAWFQQKPGKAPKALIYSASFRYSGVPSRFSGSGSGTDFTLTISSLQPEDFATYFCQQYYGYPFTFGQGTKLEIK
On to B2, for which it took 0.837 ng/mL to reach a half-maximal effect (EC50).

For orientation: EC50 means the concentration giving half of the maximal effect. A lower EC50 goes with an effect from little substance.
